Data from the supplement of paper PMC7877785.
± gives the uncertainty stated by the source.

Assay: self-splicing fitness, log relative to wild type (ln ratio); higher = more splicing; Tetrahymena group I intron in knt gene, E. coli kanamycin selection, DiMSum; sequences stand for … in CUCUCU…GGAGGGAAAAGUUAUCAGGCAUGCACCUGGUAGCUAGUCUUUAAACCAAUAGAUUGCAUCGGUUUAAAAGGCAAGACCGUCAAAUUGCGGGAAAGGGGUCAACAGCCGUUCAGUACCAAGUCUCAGGGGAAACUUUGAGAUGGCCUUGCAAAGGGUAUGGUAAUAAGCUGACGGACAUGGUCCUAACCACGCAGCCAAGUCCUAAGUCAACAGAUCUUCUGUUGAUAUGGAUGCAGUUCACAGACUAAAUGUCGGUCGGGGAAGAUGUAUUCUUCUCAUAAGAUAUAGUCGGACCUCUCCUUAAUGGGAGCUAGCGGAUGAAGUGAUGCAACACUGGAGCCGCUGGGAACUAAUUUGUAUGCGAAAGUAUAUUGAUUAGUUUUGGAGUACUCGUGGUCG
In short: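 Colonies from six replicate transformations of E. coli BL21(DE3) were pooled and amplicon-sequenced on an Illumina HiSeq 2500. The library placed an intron with all eight P1ex-region nucleotides randomised inside the knt kanamycin-resistance gene on pET-22b(+), and cells grew overnight at 37°C or 30°C on LB agar with or without 25 μg/mL kanamycin (plus 100 μg/mL carbenicillin, 50 μM IPTG, 0.2% rhamnose). Fitness is the DiMSum error-weighted combination of wild-type-normalised replicate fold changes, kanamycin versus none.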

| Sequence | self-splicing fitness (ln) (30 °C) | self-splicing fitness (ln) (37 °C) |
| --- | --- | --- |
| UUCCAGCAAUAUUACGCAGA | -2.09 ± 0.21 | -1.32 ± 0.16 |
| UUCCAGCAAUAUUACGCCAG | -1.93 ± 0.15 | -0.95 ± 0.15 |
| UUCCAGCAAUAUUACGCUCG | – | -0.977 ± 0.23 |
| UUCCAGCAAUAUUACGCUGA | -3.73 ± 0.24 | -1.91 ± 0.14 |
| UUCCAGCAAUAUUACGGCAA | -0.0711 ± 0.1 | 0.362 ± 0.12 |
| UUCCAGCAAUAUUACGGCUG | -3.09 ± 0.2 | -2.68 ± 0.25 |
| UUCCAGCAAUAUUACGGGAC | – | -1.29 ± 0.39 |
| UUCCAGCAAUAUUACGGGGG | -3.3 ± 0.15 | -1.57 ± 0.14 |
| UUCCAGCAAUAUUACGGUUU | -0.65 ± 0.064 | -0.427 ± 0.063 |
| UUCCAGCAAUAUUACGUAAA | -0.607 ± 0.086 | 0.616 ± 0.12 |
| UUCCAGCAAUAUUACGUAGC | -3.54 ± 0.17 | -1.51 ± 0.2 |
| UUCCAGCAAUAUUACGUCGC | -1.69 ± 0.32 | -1.23 ± 0.45 |
| UUCCAGCAAUAUUACGUUGC | -2.4 ± 0.15 | -2.47 ± 0.33 |
| UUCGAGCAAUAUUACGAAAA | -2.97 ± 0.31 | -1.28 ± 0.18 |
| UUCGAGCAAUAUUACGAAAC | – | -1.41 ± 0.43 |
| UUCGAGCAAUAUUACGAGGA | -1.87 ± 0.27 | -2.76 ± 0.44 |
| UUCGAGCAAUAUUACGAGUA | -1.57 ± 0.15 | -1.43 ± 0.18 |
| UUCGAGCAAUAUUACGAUAA | -1.53 ± 0.097 | -0.787 ± 0.11 |
| UUCGAGCAAUAUUACGAUCG | -2.94 ± 0.32 | -1.53 ± 0.43 |
| UUCGAGCAAUAUUACGCAGU | -2.87 ± 0.36 | -1.61 ± 0.33 |
| UUCGAGCAAUAUUACGCCAG | -2.94 ± 0.24 | -0.74 ± 0.21 |
| UUCGAGCAAUAUUACGCGAU | -2.39 ± 0.21 | -2.11 ± 0.27 |
| UUCGAGCAAUAUUACGCGGC | – | -2.29 ± 0.49 |
| UUCGAGCAAUAUUACGGUCC | -1.91 ± 0.39 | -1.56 ± 0.43 |
| UUCGAGCAAUAUUACGUAUA | -2.7 ± 0.33 | -2.78 ± 0.41 |
